Laboratory results: the nanobody polyreactivity screen of Harvey et al. (2022)

Experiment: yeast display, Sf9 membrane polyspecificity reagent, FACS + sequencing; frameworks hold sequencing errors
Outline: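 Synthetic nanobody libraries on Saccharomyces cerevisiae BJ5465 were galactose-induced for 36–48 hours, stained 1 hour at 4 °C with 10% biotinylated, detergent-solubilized Sf9 membrane reagent and enriched on streptavidin microbeads. FACS then separated cells into low and high (top ~1%) gates by anti-HA (expression) and streptavidin (reagent binding) fluorescence. Genes were colony-PCR amplified, MiSeq 2 × 250 sequenced and CDR-length filtered. A clone's polyreactivity label is that of its gate of origin.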

## QVQLVESGGGLVQAGGSLRLSCAASGRIFEIYAMGWYRQAPGTERELVAPISWRGVSTYYADSVKGRFTISRDNAKNTVYVQMNSLKAEDTAVYYCGPELGWGGFYKDGDASQFDYWGQGTQVTVSS
  polyreactivity (PSR sort gate): low polyreactivity

## QVQLVESGGGLVQAGGSLRLSCAASGRTFGVYVMGWSRQAPGKERELVAVITISGGSTYYADSVKGRFTISRDNAKNTVYLQMNSLKPEDTAVYYCAARTYYGYDYWGQGTQVTVSS
  polyreactivity (PSR sort gate): high polyreactivity

## QVQLVESGGGLVQAGGRLRLSCAASGFIFAYYAMGWYRQAPGKERELVAAITIDGSTNYADSVKGRFTISRDNAKNTVYLQMNSLKPEDTAVYYCAAADHPPVCYGYWGQGTQVTVSS
  polyreactivity (PSR sort gate): low polyreactivity

## QVQLVESGGGLVQAGGSLRLSCAASGRTFTPYAMGWYRQAPGKERELVAAITSNSGITSYADSVKGRFTISRDNAKNTVYLQMNSLKPEDTAVYYCNADYYRYFRYYYWGQGTQVTVSS
  polyreactivity (PSR sort gate): high polyreactivity

## QVQLVESGGGLDQAGGRLRLSCPASGRIFQANAMGRYRQAPGKERELVAAITNRGGSTYADSVKGRFTISRDNAKNTVYLQMNSLKPEDTAVYYCAADVSRYVQRDNYWGQGTQVTVSS
  polyreactivity (PSR sort gate): low polyreactivity

## QVQLVESGGGLVQAGGSLRLSCAASGRIFKYYAMGWYRQAPGKERELVARISSRGGSTNYADSVKGRFTISRDNAKNTVYLQMNSLKPEDTAVYYCAAQYQNFPYGYWGQGTQVTVSS
  polyreactivity (PSR sort gate): high polyreactivity

## QVHLVESGGGLVQAGGSLRLSCAASGRTFRRYAMGWYRQAPGKERELVAGISRSGVSTYYADSVKGRFTISRDNAKNTVYLQMNSLKPEDTAVYYCATRYVPTLRSSGDYCGQGTQVTVSS
  polyreactivity (PSR sort gate): high polyreactivity

## QVQLVESGGGLVQAGGSLRLSCAASGSIFYPNAMGWYRQAPGKEREFVAAITWNGDSTYYADSVKGRFTISRDNAKNTVYLQMNSLKPEDTAVYYCNTDGQGIYSYNKDLSWISGYDYWGQGTQVTVSS
  polyreactivity (PSR sort gate): low polyreactivity

## QVQLVESGGGLVQAGGSLRLSCAASGSILADYAMGWYRQGPGKERELVAGISSGGSTNYADSVKGRFTITGDNAKNTVSLQMNSLKPEDTAVYYCNADQDFLFIGYLFDYWGQGTQVTVSS
  polyreactivity (PSR sort gate): low polyreactivity

## QLQLVESGGGLVQAGGSLRLSCAASGFTFRWNAMGWYRQAPGKERELLAAITNDDSTYYADSVKGRFTISRDNAKNSVYLQLNSLKPEDTAVYYCNARYGRYLDLDTGVALAGRGYWGQGTQVTVSS
  polyreactivity (PSR sort gate): low polyreactivity

## QVQLVESGGGLVQAGGSLRLSCAASGFTFKYYAMGWYRQAPGKERELVAVISSSGGSTYYADSVKGRFTISRDNAKNTVYLQMNSLKPEDTAVYYCNTDAYWHRQQYDYWGQGTQVTVSS
  polyreactivity (PSR sort gate): low polyreactivity

## QVQLVESGGGLVQAGGSLRLSCASSGSIFVTYTMGWYRQAPGKERELVATISGGSSTYADSVKGRFTISRDNAKNTVYLQMNSLKPEDTAVYYCNAVWYFKPPPLYYIPYRQYDYWGQGTQVTVSS
  polyreactivity (PSR sort gate): low polyreactivity

## QVQLVESGGGLVQAGGSLRLSCAASGFTFGYYTMGWYRQAPGKERELVAAISSGGSTNYADSVKGRFTISRDNAKNTVYLQMNSLKPEDTAVYYCTATQIGPYYLPFDSWGQGTQVTVSS
  polyreactivity (PSR sort gate): high polyreactivity

## QVQLVESGGGLVQAGGSLRLSCAASGSTFYGNAMGRYRQAPGKEWELVAAISWSGGSTYYADSVKGRFTISRDNAKNTVYLQMNSLKPEDTAVYYCNADGSDRVWYDGYDYWGQGTQVTVSS
  polyreactivity (PSR sort gate): low polyreactivity

## QVQLVESGGGLVQAGGSLRLSCAASGSIFPHYAMGWYRQAPGKERELVASITYDGDSTYYADSVKGRFTISRDNAKNTVYLQMNSLKPEDTAVYYCAADYYYVYSSFGHYYWGQGTQVTVSS
  polyreactivity (PSR sort gate): low polyreactivity

## QVHLVESGGGLVQAGGSLRLSFAASGIILYDYAMGWNRQAPGKEREMVAGINRSGGITYYADSVKGRFTISRDNAKNTVYFQMNSLIPEDTAVYYCNAVFRYGATRSYRYDYWGQGTQVTVSS
  polyreactivity (PSR sort gate): high polyreactivity

## QVQLVESGGGLVQAGGSLRLSCAASGFTFGPYTMGWYRQAPGKERELVAAISRSGTGTYYADSVKGRFTISRDNAKNTVYLQMNSLKPEDTAVYYCAADNGDNHGYYWGQGTQVTLSS
  polyreactivity (PSR sort gate): high polyreactivity

## QVQLVESGGGLVQAGGSLRLSCAASGFTFRANGMGWYRQAPGKERELVATITSGGTTNYADSVKGRFTISRDNAKITVYLQMNSLKPEDTAVYYCAKAFRHSTFFAPYDYWRQGTQVTVSS
  polyreactivity (PSR sort gate): low polyreactivity

## QVQLVESGGGLVQAGVSLRLICAASGRIFALNTMGWYRQAPGKEREFVAAITTSGGSTYADSVKGRFTISRDNAKNTVYFQMNSLKPEYTAVYYFNKEYFHNWAPTYDYWGQGTQVTVSS
  polyreactivity (PSR sort gate): low polyreactivity

## QVQLVESGGGLVQAGGRLRLSCAASGRTFYRNAMGWYRQAPGKERELVAGISVRGGRTYYADSVKGRFTISRDNAKNTVYLQMNSLKPEDTAVYYCNKRLSSSLSLKYDYWGQGTQVTVSS
  polyreactivity (PSR sort gate): high polyreactivity

## QVQLVESGGGLVQAGGSLRLSCAASGSIFFVYAMGWYRQAPGKERELVAGIRWSGGRTSYADSVKGRFTISRDNAKNTVYLQMNSLNPEDTAVYYCAADPRSYFTSEYWGQGTQVTVSS
  polyreactivity (PSR sort gate): high polyreactivity

## QVQLVESGGGLVQAGGSLRLSCAASGRIFPRNTMGWYRQAPGKERELVAAISTRGGSTYYADSVKGRSTISRDNAKNNVYLQMNSLKPEDTAVYYCAAGRRFPAIYSTGNYWGQGTQVTVSS
  polyreactivity (PSR sort gate): high polyreactivity

## QVQLVESGGGLVQAGGSLRLSCAASGRTFASYAMGWYRQAPGKERELVASIRYSGGSTHYADSVKGRFTISRDNAKNTVYLQMNSLKPEDTAVNYCNARPKFRTYNYWGQGTQVTVSS
  polyreactivity (PSR sort gate): high polyreactivity

## QVQLVESGGGLVQAGGSLRLSCPSSGIIFYYYAMGWYRQAPGKERELVAAINFSVGGTYYADSVKGRFTISRDNAKNTVYLQMNSEKPEDTEVYYCAKDIVIPATYVEYDYWGQGTQVTVSS
  polyreactivity (PSR sort gate): low polyreactivity

## QVQLVESGGGLVQAGGSLRLSCAASGNTFGRYAMGWYRQAPGKERELVAAITKRGGTTYYADSVKGRFTISRDYAKNTVYLQMNSLKPEDTAVYDCAAKRSVLRTADYDYWGQGTQVTVSS
  polyreactivity (PSR sort gate): high polyreactivity

## QVQLVESGGGLVQAAGSLRLSCAASGRTFYRNAMGWYRQAPGKERELVAAISQSGGSTYYADSVKGRFTISRDNAKNTVYLQMNSLKPEDTAVYYWAAGNSRRVGMDYWGQGTQVTVSS
  polyreactivity (PSR sort gate): high polyreactivity

## QVQLVESGGGLVQAGGSLRLSCAASGRIFEGYAMGWYRQAPGKERELVAAITGSGGGTYYADSVKGRFTISRDNAKNTVYLQMNSLKPEDTAVYYCATAYSAYQHPYGYWGQGTQVTVSS
  polyreactivity (PSR sort gate): low polyreactivity

## QVQLVESGGGLVQAGGSLRLSCAASGLTFRYYAMGWYRQAPGKERELVAAISSRGASTYYADSVKGRFTISRDNAKNTVYLQMNSLKPEDTAVYYCAVRTYVYHWSFSSLPYDYWGQGTQVTVSS
  polyreactivity (PSR sort gate): high polyreactivity

## QVQLVESGGGLVQAGGSLRLSCAASGSTFYYYARGWYRQAPGKERELVATITSGASTNYADSVKGRFTISRDNAKNTVYLQMNSLKPEDTAVYYCNAVSLTSYLPWSSYDYWGQGTQVTVSS
  polyreactivity (PSR sort gate): low polyreactivity

## QVQLVESGGGLVQAGGSLRLSCAASGRTFRQYAMGWYRQAPGKERELVAAIRTNGGRTYYADSVKGRFTISRDNAKNTVYLQMNSLKPEDTAVYYCAVYAVVQGVLFDYWGQGTQVTVSS
  polyreactivity (PSR sort gate): high polyreactivity

## QVQLVESGGGLVQAGGSLRLSCAASGSTFYAYVMGWYRQAPGKERELVAGISWSGGSTYYADSVKGRFTISRDNAKNTVYLQMNSLKPEDTAVYFFAADYYNTYGYDYWGQGTQVTVSS
  polyreactivity (PSR sort gate): low polyreactivity

## QVQLVESGGGLVQAGGSLRLICAASGRTFARYTMGWYRQARGKERELVASITRGGSTYYADSVKGRFTISRDNAKITVYLQMYSLKPEDSAVYYCNAVYIVGGDWGQGTQVTVSS
  polyreactivity (PSR sort gate): high polyreactivity

## QVQLVESGGGLVQAGGSLRLSCAACGSIFPGYAMGWYREAPGKERELVAAITWNGGRTYSADSVKGRFTISRDNAKNTVYLQMNSLKPEDTAVYYCAVAGYAGLSVKYGYWGQGTQVTVSS
  polyreactivity (PSR sort gate): high polyreactivity

## QVQLVESGGGLVQAGGSLRLSCAASGSIFSYYAMGWYRQAPGKERELVAAISRSGVSTYYADSVKGRFTISRDNAKNTVYLQMNSLKPEDTAVYYCNAVFTWPRRKYGYDYWGQGTQVTVSS
  polyreactivity (PSR sort gate): high polyreactivity

## QVQLVESGGGLVQAGGSLRLSCAASGSTFYYYTMGCYRQAPGKEREFVAAITRSGGSTYYADSVKGRFTISRDNAKNTVYLQMNSLKPEDTAVYYCAATRQRVKSEYWGQGTQVTVSS
  polyreactivity (PSR sort gate): low polyreactivity

## QVQLVESGGGLVQAGGSLRLSCAASGIIFEGYAMGWYRQATGKERELVAAITGTADGTYYADSVKGRFTISRDNAKNTVYLQMNSLKPEDTAVYYCAKGSVVYLLRGVKGHSMDYWGQGTQVTVSS
  polyreactivity (PSR sort gate): low polyreactivity

## QVQVVESGGGIVHAEGSLRLSCAPSGLTFPVYAMVWYRQAPRKERELVAAISKSGGNTYYADSVKGRFTISRDNAKNTVYLQMNSLKPEDTAVYYCAAGYLSGNYARYGYWGQGTQVTVSS
  polyreactivity (PSR sort gate): high polyreactivity

## QVQLVESGGGLVQAGGSLRLSCAASGSTFARYVMGWYRQAPGKDRELVAAIRSTGGRTYYADSVKGRFTISRDNAKNTVYLQMNSLKPEDTAVYYCAAAFGQYSRKRFDYWGQGTQVTVSS
  polyreactivity (PSR sort gate): high polyreactivity

## QVQLGESGGGLVQAGGSLRLSCAASGRTFIYDAMGWYRQAPGKERELVAGISRNGGRTYYADSVKGRFTISRDNAKNTVYLKMNSLKPEDTAVYYCIARTYSYRGYNYWGQGTQVTVSS
  polyreactivity (PSR sort gate): high polyreactivity

## QVQLVESGGGVVQAGGSLRLSCAASGRTFPYYTMGWYRQAPGKERELVAAITRSGDSTYYADSVKGRFTISRDNAKNTVYLQMYSLKPEDTAVYYCAADIWSSDYEEFYYWGLGTQVTVSS
  polyreactivity (PSR sort gate): low polyreactivity

## QVQLVESWGGLVQAGGSLRLSCAASGRIFYGYAMAWYRQAPGKEREFVAAITVSAGSTYYADSVKGRFTISRDNAKNTVYLQMNSLKPEDTEVYYCAAKRYVYTSYRFVYWGQGTQVTVSS
  polyreactivity (PSR sort gate): low polyreactivity

## QVQLVDSGVGLVQAGGSLRLSCAASGRTFTTNTKGWYRDATWKERELVAAITWSGASTYYADSVKGRFTISRDNAKNTVYLQMNSLKPEDTAVYYCAAERTPSYRAYDYWGQGTQVTVSS
  polyreactivity (PSR sort gate): low polyreactivity

## QVQLVESGGGLVQAGGSLRLSCAASGRTFGRYAMGWYRQAPGKEREFVASISRRGGSTNYADSVKGRFTISRDNAKNTVYLQMNSLKPEDTAVYYCAKRFTLPLSEYDYWGQGTQVTVSS
  polyreactivity (PSR sort gate): high polyreactivity
